Reference: patent US20200055939A1 (Genentech, published 2020)
Substitutions are numbered along the chain they refer to.

T1: MICA*008 on MEL-JUSO cells (human, UniProt Q29983 24-317)
T1 chain: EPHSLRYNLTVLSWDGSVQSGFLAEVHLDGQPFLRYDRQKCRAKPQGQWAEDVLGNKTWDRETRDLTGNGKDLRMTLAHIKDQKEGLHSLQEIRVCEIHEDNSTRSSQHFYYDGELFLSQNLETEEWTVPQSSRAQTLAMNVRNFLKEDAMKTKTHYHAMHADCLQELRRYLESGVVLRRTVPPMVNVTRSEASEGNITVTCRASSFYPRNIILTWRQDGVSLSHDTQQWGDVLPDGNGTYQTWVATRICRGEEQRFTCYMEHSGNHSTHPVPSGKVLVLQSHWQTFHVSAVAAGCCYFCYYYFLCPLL

T2: huMICB*005 alpha 3-his (human)
T2 construct: whole construct entry: GS, alpha 3 domain, GNS, His8; also called MICB005.His; MICB*005 alpha3 construct
T2 chain: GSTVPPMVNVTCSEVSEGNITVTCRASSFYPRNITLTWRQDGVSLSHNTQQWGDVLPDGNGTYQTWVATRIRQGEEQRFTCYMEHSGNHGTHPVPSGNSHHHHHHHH

T3: huMICA*008 alpha 3-his (human)
T3 construct: whole construct entry: GS, alpha 3 domain (Thr204-Ser297), GNS, His8; also the construct of the FPOP experiment; also called MICA008.His; MICA*008 alpha3 construct
T3 chain: T2 chain with C12R, V15A, T35I, N48D, R72C, Q73R, G90S

T4: huMICA*002 alpha 3-his (human)
T4 construct: whole construct entry: GS, alpha 3 domain, GNS, His8; also called MICA002.His; MICA*002 alpha3 construct
T4 chain: T2 chain with C12R, V15A, S28G, R32W, T37S, N48D, R72C, G90S

T5: huMICA*004 alpha 3-his (human)
T5 construct: whole construct entry: GS, alpha 3 domain, GNS, His8; also called MICA004.His; MICA*004 alpha3 construct
T5 chain: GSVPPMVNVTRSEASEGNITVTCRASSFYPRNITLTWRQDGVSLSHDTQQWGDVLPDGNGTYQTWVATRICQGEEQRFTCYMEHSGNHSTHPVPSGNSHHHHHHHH

B1: 13A9 (antibody, V domains shown)
VH: QVQLQQSGAELVRPGTSVKVSCKASGYAFTNYLIEWVKQRPGQGLEWIGAINPGSGATNYNEKFKDKARLTADKSSNTAYLQFSSLTSDDSAVYFCARFLGNYFDNWGQGATLTVSS
VL: DIQMTQSPASLSASVGETVTITCRASGNIHSYLAWYQQKQGKSPQLLVYYAETLADGVPSRFSGRGSGTQYSLKINSLQPEDFGSYFCQQFWTTPYTFGGGTKVEIK
notes: mouse variable domains
B2: 13A9 (m IgG2a, CHO) (antibody, V domains shown)
VH: B1 VH
VL: B1 VL
B3: 6E1 (m IgG2a, CHO) (antibody, V domains shown)
VH: QGQMQQSGAELVKPGASVKLSCKTSGFTFSDNYISWLKQKPGQSLEWIAWIYAGTGGSSYNQKFRDKAQLTVDTSSRTAYMQLSSLTTEDSAIYYCARHDYYGTSGAWFAYWGRGTLVTVSA
VL: DVLMTQTPLSLPVSLGDQASISCRSSQHIVHSNENTYLEWYLQKPGQSPKLLIYKVSNRFSGVPDRFSGSGSGTDFTLKISRVEAEDLGVYYCFQGSHVPWTFGGGTKVEIK
B4: 15F11 (antibody, V domains shown)
VH: EIQLQQSGPELVKPGASVRVSCKPSGYAFTSNNIYWVKQSRRKSLEWIGYIDPYIGRIIYNQQFKDKATLTVDKSSSTAYMHLNSLTSEDSAVYYCSRSGERSNFDYWGQGTTLTVSS
VL: EIVLTQSPTAMAASPGEKITITCSASSSISSNYLHWYQQKPGFSPKLLIYRTSNLASGVPARFSGSGSGTSYSLTIGPMEAEDVATYYCQQGGSLPLTFGAGTKVEIK
notes: mouse variable domains
B5: 15F11 (m IgG2a, CHO) (antibody, V domains shown)
VH: B4 VH
VL: B4 VL
B6: 1D5 (m IgG2a, CHO) (antibody, V domains shown)
VH: EIQLQQSGPELVKPGASVKVSCKASGYAFTSQNIYWVKQSHGKSLEWIGYIEPYNVVPMYNPKFKGKATLTVDKSSSSAYIHLNSLTSEDSAIYYCARSGSSNFDYWGQGTTLTVSS
VL: B4 VL with V3I, A10T, N32H, P41S, P78T, G93S
B7: 1D5v1 (antibody, IgG1, V domains shown)
VH: EIQLVQSGAEVKKPGASVKVSCKASGYAFTSQNIYWVRQAPGQGLEWIGYIEPYNVVPMYNPKFKGRATLTVDKSTSTAYMELRSLRSDDTAVYYCARSGSSNFDYWGQGTLVTVSS
VL: EIVLTQSPDFQSVTPKEKVTITCSASSSISSHYLHWYQQKPDQSPKLLIYRTSNLASGVPSRFSGSGSGTDYTLTINSLEAEDAATYYCQQGSSLPLTFGQGTKVEIK
notes: humanized variant of 1D5; also called lD5v1
B8: 1D5v11 (antibody, IgG1, V domains shown)
VH: B7 VH with M81L, R84S, D89E
VL: DIQLTQSPSSLSASVGDRVTITCSASSSISSHYLHWYQQKPGKSPKLLIYRTSNLASGVPSRFSGSGSGTDYTLTISSLQPEDFATYYCQQGSSLPLTFGQGTKVEIK
notes: humanized variant of 1D5
B9: 1D5v4 (antibody, IgG1, V domains shown)
VH: B7 VH with I2V, A68V, L70I, V72R, K74T, M81L, R84S, D89E
VL: B7 VL
notes: humanized variant of 1D5
B10: 1D5v7 (antibody, IgG1, V domains shown)
VH: B7 VH with M81L, R84S, D89E
VL: B7 VL with Y50K, Y72F
notes: humanized variant of 1D5
B11: 1D5v3 (antibody, IgG1, V domains shown)
VH: B7 VH with M81L, R84S, D89E
VL: B7 VL
notes: humanized variant of 1D5
B12: 1D5v8 (antibody, IgG1, V domains shown)
VH: B7 VH with I2V, A68V, L70I, V72R, K74T, M81L, R84S, D89E
VL: B7 VL with Y50K, Y72F
notes: humanized variant of 1D5
B13: 1D5v2 (antibody, IgG1, V domains shown)
VH: B7 VH with I2V, I48M, A68V, L70M, V72T, K74T
VL: B7 VL
notes: humanized variant of 1D5
B14: 1D5v5 (antibody, IgG1, V domains shown)
VH: B7 VH
VL: B7 VL with Y50K, Y72F
notes: humanized variant of 1D5
B15: 1D5v6 (antibody, IgG1, V domains shown)
VH: B7 VH with I2V, I48M, A68V, L70M, V72T, K74T
VL: B7 VL with Y50K, Y72F
notes: humanized variant of 1D5
B16: 1D5v14 (antibody, IgG1, V domains shown)
VH: B7 VH with I2V, I48M, A68V, L70M, V72T, K74T
VL: B8 VL with L4M, S44A, Y72F
notes: humanized variant of 1D5; also called 1D5v14 second data point

Biological target: T1, MICA*008 on MEL-JUSO cells
Experiment: cell-based or functional assay
Wherever % Inhibition is given: test concentration or dose not given here.

| Binder | % Inhibition [%] |
| --- | --- |
| B1 | -7 |
| B2 | 29 |
| B3 | 36 |
| B4 | 50 |
| B5 | 69 |
| B6 | 74 |
| B7 | 52 |
| B8 | 56 |
| B9 | 43 |
| B10 | 51 |
| B11 | 50 |
| B12 | 52 |
| B13 | 33 |
| B14 | 36 |
| B15 | 51 |

biological target: MICA*004 on HCC1534 cells (human, UniProt Q29983 24-383); experiment: cell-based or functional assay

| Binder | % Inhibition [%] |
| --- | --- |
| B1 | 21 |
| B2 | 34 |
| B3 | 40 |
| B4 | 54 |
| B5 | 60 |
| B6 | 59 |
| B7 | 54 |
| B8 | 52 |
| B9 | 46 |
| B10 | 48 |
| B11 | 56 |
| B12 | 42 |
| B13 | 38 |
| B14 | 39 |
| B15 | 47 |

biological target: MICB*005 on HCC1534 cells (human); experiment: cell-based or functional assay

| Binder | % Inhibition [%] |
| --- | --- |
| B1 | 61 |
| B2 | 60 |
| B3 | 47 |
| B4 | 43 |
| B5 | 57 |
| B6 | 76 |
| B7 | 41 |
| B8 | 36 |
| B9 | 34 |
| B10 | 42 |
| B11 | 38 |
| B12 | 35 |
| B13 | 26 |
| B14 | 32 |
| B15 | 37 |

Biological target: T2, huMICB*005 alpha 3-his
Experiment: SPR, Biacore 8K, antibody on Protein A chip
Description: (§1) A Protein A sensorchip (GE Healthcare) was used following manufacturer provided protocols to capture humanized anti-MICA/B antibodies. The MICA/B alleles were passed over. Antibody binding was measured to human MICA 002, 004, 008 and MICB 005 alpha 3 domains (His tagged, in-house). Sensograms for binding of MICA/B were recorded using an injection time of 2 minutes with a flow rate of 30 ml/min, at a temperature of 25° C., and with a running buffer of 10 mM HEPES, pH 7.4, 150 mM NaCl, 3mM EDTA, and 0.005% Tween 20. After injection, disassociation of the alpha 3 domain from the antibody was monitored for 10 minutes in running buffer. The surface was regenerated between binding cycles with a 60 ul injection of 10 mM Glycine HCl pH 1.5. […] The data was analyzed using a 1:1 binding model. Sensograms of MICA alleles binding to captured anti-MICA antibody were used to calculate the dissociation constant (Kd).

| Binder | Kd [nM] |
| --- | --- |
| B1 | 2.35 |
| B4 | 2.28 |
| B7 | 1.96 |
| B8 | 1.38 |
| B9 | 16.2 |
| B10 | 3.31 |
| B11 | 1.78 |
| B12 | 18.8 |
| B16 | 2.14 |
| B13 | 2.69 |
| B14 | 3.99 |
| B15 | 6.15 |

Biological target: T3, huMICA*008 alpha 3-his
Experiment: SPR, Biacore 8K, antibody on Protein A chip
Description: as §1

| Binder | Kd [nM] |
| --- | --- |
| B1 | 2.35 |
| B4 | 0.79 |
| B7 | 0.96 |
| B8 | 0.78 |
| B9 | 7.45 |
| B10 | 1.7 |
| B11 | 0.85 |
| B12 | 9.08 |
| B16 | 1.16 |
| B13 | 0.89 |
| B14 | 1.64 |
| B15 | 2.61 |

Biological target: T4, huMICA*002 alpha 3-his
Experiment: SPR, Biacore 8K, antibody on Protein A chip
Description: as §1

| Binder | Kd [nM] |
| --- | --- |
| B1 | 4.82 |
| B4 | 2.21 |
| B7 | 1.4 |
| B8 | 1.09 |
| B9 | 6.63 |
| B10 | 2.21 |
| B11 | 1.21 |
| B12 | 11.3 |
| B16 | 1.62 |
| B13 | 1.69 |
| B14 | 2.59 |
| B15 | 3.69 |

Biological target: T5, huMICA*004 alpha 3-his
Experiment: SPR, Biacore 8K, antibody on Protein A chip
Description: as §1

| Binder | Kd [nM] |
| --- | --- |
| B1 | 6.77 |
| B4 | 1.31 |
| B7 | 1.17 |
| B8 | 0.83 |
| B9 | 6.2 |
| B10 | 1.67 |
| B11 | 0.96 |
| B12 | 9.41 |
| B16 | 1.23 |
| B13 | 1.34 |
| B14 | 2.13 |
| B15 | 2.91 |
